The record followed here is PMC4670726 (2015).

The chains are these.
B1: JIP1, full length, YFP fragment F1 fusion (BiFC) [not stated] / F2-JNK1 (K55R) (BiFC) [human] (parent complex)
chain 1: MAERESGGLGGGAASPPAASPFLGLHIASPPNFRLTHDISLEEFEDEDLSEITDECGISLQCKDTLSLRPPRAGLLSAGGGGAGSRLQAEMLQMDLIDATGDTPGAEDDEEDDDEERAARRPGAGPPKAESGQEPASRGQGQSQGQSQGPGSGDTYRPKRPTTLNLFPQVPRSQDTLNNNSLGKKHSWQDRVSRSSSPLKTGEQTPPHEHICLSDELPPQSGPAPTTDRGTSTDSPCRRSTATQMAPPGGPPAAPPGGRGHSHRDRIHYQADVRLEATEEIYLTPVQRPPDAAEPTSAFLPPTESRMSVSSDPDPAAYPSTAGRPHPSISEEEEGFDCLSSPERAEPPGGGWRGSLGEPPPPPRASLSSDTSALSYDSVKYTLVVDEHAQLELVSLRPCFGDYSDESDSATVYDNCASVSSPYESAIGEEYEEAPRPQPPACLSEDSTPDEPDVHFSKKFLNVFMSGRSRSSSAESFGLFSCIINGEEQEQTHRAIFRFVPRHEDELELEVDDPLLVELQAEDYWYEAYNMRTGARGVFPAYYAIEVTKEPEHMAALAKNSDWVDQFRVKFLGSVQVPYHKGNDVLCAAMQKIATTRRLTVHFNPPSSCVLEISVRGVKIGVKADDSQEAKGNKCSHFFQLKNISFCGYHPKNNKYFGFITKHPADHRFACHVFVSEDSTKALAESVGRAFQQFYKQFVEYTCPTEDIYLE
chain 2: MSRSKRDNNFYSVEIGDSTFTVLKRYQNLKPIGSGAQGIVCAAYDAILERNVAIRKLSRPFQNQTHAKRAYRELVLMKCVNHKNIIGLLNVFTPQKSLEEFQDVYIVMELMDANLCQVIQMELDHERMSYLLYQMLCGIKHLHSAGIIHRDLKPSNIVVKSDCTLKILDFGLARTAGTSFMMTPYVVTRYYRAPEVILGMGYKENVDLWSVGCIMGEMVCHKILFPGRDYIDQWNKVIEQLGTPCPEFMKKLQPTVRTYVENRPKYAGYSFEKLFPDVLFPADSEHNKLKASQARDLLSKMLVIDASKRISVDEALQHPYINVWYDPSEAEAPPPKIPDKQLDEREHTIEEWKELIYKEVMDLEERTKNGVIRGQPSPLGAAVINGSQHPSSSSSVNDVSSMSTDPTLASDTDSSLEAAAGPLGCCR

In the test the parent is B1. Put plainly: BiFC (bimolecular fragment complementation), fluorescence measurement on co-transfected HEK293 cell populations; live HEK293 cells, transient co-transfection, N = 6; read off a plot.
As to chain 1 R160A, chain 1 P161A, chain 1 L164A, chain 1 L166A, the response is ~1700 arbitrary units.
